Where no end group is shown, it is not given here.
Assays:
[1] = target: GABABR1b expressed on cells (UniProt Q9UBS5-2 30-474, limits assumed); experiment: cell-based binding assay, flow cytometry
[2] = target: T1, Sushi domain 1 of the human GABA B1a receptor (human, UniProt Q9UBS5 26-96); experiment: fluorescence polarization, SD1 titrated against 1.2 µM FITC-9mer; concentration is that of SD1
T1 construct: Purified recombinant protein from E. coli; also called SD1; GABABR1a-SD1

[3] = target: T1, Sushi domain 1 of the human GABA B1a …; experiment: fluorescence polarization, SD1 titrated against 3.7 µM FITC-9mer; concentration is that of SD1
[4] = target: T1, Sushi domain 1 of the human GABA B1a …; experiment: fluorescence polarization, SD1 titrated against 0.05 µM FITC-9mer; concentration is that of SD1
[5] = target: T1, Sushi domain 1 of the human GABA B1a …; experiment: fluorescence polarization, SD1 titrated against 0.14 µM FITC-9mer; concentration is that of SD1
[6] = target: T1, Sushi domain 1 of the human GABA B1a …; experiment: fluorescence polarization, SD1 titrated against 0.41 µM FITC-9mer; concentration is that of SD1
[7] = target: T1, Sushi domain 1 of the human GABA B1a …; experiment: fluorescence polarization, SD1 titrated against 11.11 µM FITC-9mer; concentration is that of SD1
[8] = target: T1, Sushi domain 1 of the human GABA B1a …; experiment: ITC, peptide titrated into purified SD1
Method: First, we wondered whether the wild-type sAPP 9-mer peptide would be the optimal sequence in terms of SD1 binding or whether sequence variants of the sAPP 9-mer would have improved binding to the GABABR1a-SD1. Therefore a panel of single and double sAPP 9-mer mutants was generated. An alanine scan was performed for the residues on position 1 to position 7. Based on an ITC assay, these single mutant peptides bound the SD1 with the same or slightly higher Kd (Table 1). Also the double mutants VIB_P04, VIB_P05 and VIB_P19 bound with a similar Kd to SD1 compared to the wild-type 9-mer. We have also tested the effect of the D-isomer of the amino residues on position 1 to 4, in single or multiple combinations. None of the mutations had strong effects on the measured Kd (Table 1). We therefore conclude that the wild-type sAPP 9-mer is already optimized but that many variants bind as good to SD1 and thus will modulate GABABR1a in a similar manner.
The Sushi-1 protein was dialysed overnight to PBS buffer and diluted to 30 μM in the same buffer. The peptides were resuspended in PBS at a stock concentration of 3 mM and diluted further in the same buffer to 300 μM. ITC experiments were performed on a Microcal ITC200 device. Titrations comprised 26×1.5 μL injections of peptide into protein, with 90 s intervals. An initial injection of ligand (0.5 μL) was made and discarded during data analysis. The data were fitted to a single binding site model using the Microcal LLC ITC₂₀₀. Original software provided by the manufacturer.

[9] = target: T1, Sushi domain 1 of the human GABA B1a …; experiment: FP competition vs FITC-9mer on purified SD1; 9-mer
Method: (§1) To screen for GABABR1a binders using unlabelled test compounds, the assay was turned into a competition assay using FITC-9mer. […] To validate this inhibitor assay, the IC50 values were determined of the 17-mer, 9-mer, 5-mer as well as those from 3 negative controls: 10-mer, scrambled 17-mer and a scrambled 9-mer (FIG. 2).
To determine if the peptides of this application were able to disrupt the SD1-9-mer complex, each peptide (in single point or dose-response curve) tested was incubate with SD1 protein for 1 h at RT. After this initially incubation, FITC-9mer was added to the previous mix and incubated during 2 h at RT. The signal intensity was measure in an appropriate plate reader using the following settings: Number of flashes per well: 200; Excitation: F482-16; Dichroic filter: FLP 504; Emission A F530-40; Gain A: 738, Gain B: 736. The assay was conducted in a 384-well plate.

[10] = target: T1, Sushi domain 1 of the human GABA B1a …; experiment: FP competition vs FITC-9mer on purified SD1; 17-mer
Method: Intrigued by the surprising results of the 5-mer, it was decided to set up a medium- to high-throughput screen to optimize the 5-mer sequence. Several assays were tested to find a reproducible, robust and cost-effective assay that is also suitable for high-throughput screening. A fluorescence polarization (FP) assay was selected. FP measurements are well-known for receptor binding assays. The assay is based on the rotational movement of fluorescently labelled molecules in solution. […] The FP assay was optimized using the FITC labelled sAPP 9-mer (FIG. 1).
as §1

T1 sequence (Q9UBS5 26-96 limits assumed): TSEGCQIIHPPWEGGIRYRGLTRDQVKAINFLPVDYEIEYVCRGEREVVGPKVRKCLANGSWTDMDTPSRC
Chain of GABABR1b expressed on cells (Q9UBS5 other isoform, or with tags, fused parts or gaps limits assumed): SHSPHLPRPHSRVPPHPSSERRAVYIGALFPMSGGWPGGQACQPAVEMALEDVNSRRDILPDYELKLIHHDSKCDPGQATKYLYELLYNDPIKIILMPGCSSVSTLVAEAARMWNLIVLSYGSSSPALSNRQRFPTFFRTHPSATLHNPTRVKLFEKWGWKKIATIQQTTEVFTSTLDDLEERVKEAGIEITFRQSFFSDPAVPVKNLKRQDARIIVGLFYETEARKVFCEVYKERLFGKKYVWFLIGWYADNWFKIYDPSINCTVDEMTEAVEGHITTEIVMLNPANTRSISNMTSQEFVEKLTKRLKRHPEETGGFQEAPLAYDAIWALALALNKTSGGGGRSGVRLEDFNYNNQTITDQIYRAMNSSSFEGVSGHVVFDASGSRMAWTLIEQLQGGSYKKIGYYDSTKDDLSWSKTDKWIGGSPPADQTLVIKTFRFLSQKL

B1: 9-mer tagged with Biotin (peptide)
peptide: DDSDVWWGG
modifications: also: biotin tag, site not given here
notes: also called biotin-9mer; biotion-9mer
binding result [1]: no binding

B2: FITC labelled sAPP 9-mer (peptide)
peptide: DDSDVWWGG
modifications: also: FITC label, site not given here
notes: also called FITC-9mer
EC50 (read off the curve) [2]: ~2000 nM | EC50 (read off the curve) [3]: ~4000 nM | EC50 (read off the curve) [4]: ~800 nM | EC50 (read off the curve) [5]: ~1000 nM | EC50 (read off the curve) [6]: ~1000 nM | EC50 (read off the curve) [7]: ~8000 nM

B3: wild-type sAPP 9-mer (peptide)
peptide: DDSDVWWGG
notes: Unlabelled
Kd [8]: 3000 nM | IC50 [9]: 11000 nM

B4: wild-type sAPP 17-mer (peptide)
peptide: DDSDVWWGGADTDYADG
IC50 [10]: 1700 nM
